{"source": "patent US20170174769A1", "about": "(Regeneron, published 2017)", "binders": {"B1": {"name": "H2aM8098N (antibody, V domains shown)", "VH": "QLQLQESGPGLVKPSETLSLTCTVSGGSISSSNYYWDWIRQTPEKGLEWIGSIHYSGTSYYNPSLKSRVTISVDTSKNQFSLKLRSVTAADAAVYYCARQTSVYWYFDIWGHGTLVTVST", "VL": "EIVLTQSPGTLSLSPGEGATLSCRASQSVRNNYLAWYQQKPGQAPRLLIYGASSRAIGIPDRFSGSGSGTDFTLTISRLEPKDFVVYYCQQYGGSLFTFGPGTKVDIK", "notes": "mouse IgG2 Fc (H2aM prefix)"}, "B2": {"name": "H4H8881P (antibody, V domains shown)", "VH": "QVQLVQSGAEVKKPGASVKVSCKASGYTFTSYVIHWVRQAPGQRLEWMGWSNAANGDTKYSQEFQDRVTFTRDTSASTAYMELSSLRSEDMAVYYCARWNWNYGAFDIWGQGTMVTVSS", "VL": "DIQMTQSPSSLSASVGDRVTITCQASQDINNYLHWYQQKSGKAPNLLIYDASILETGVPSRFSGSGSGTDFTFTISSLQPEDIATYYCQQYDNLPYTFGQGTKLEIK", "notes": "human IgG4 Fc (H4H prefix)"}, "B3": {"name": "H4H8859P (antibody, V domains shown)", "VH": "EVQLVESGGSVVRPGGSLRLSCAASGFTFDVYGMSWVRQAPGKGLEWVSGINWIGGSTGYADSVKGRFTISRDNAKNSLYLQMNSLRAEDTALYYCTREEDYWGQGTLVTVSS", "VL": "DVVMTQSPLSLAVTLGQPASISCRSSQSLVYSDGNTYLNWFQQRPGQSPRRLFYKVSNRDSGVPDRFSGSGSGTDFTLKISRVEAEDVGIYYCMQGIKWPLTFGGGTKVEIK", "notes": "human IgG4 Fc (H4H prefix)"}, "B4": {"name": "H4H8870P (antibody, V domains shown)", "VH": "B3 VH with S10G, T28K, A40L, N52S, I54T, T58S, A75G, N77K", "VL": "not shown", "notes": "human IgG4 Fc (H4H prefix)"}, "B5": {"name": "H2aM8093N (antibody, V domains shown)", "VH": "QVQLVQSGAEVKRPGSSVKVSCKASGDTFSTYAISWVRQAPGQGLEWMGGIIPVFGTTNYAQKFQDRVTITTDESTRTAYMELSSLRSEDTAVYYCAGIAGPDYWGQGTLVTVSS", "VL": "DIQMTQSPSSLSASVGDRVTITCRASQGIRNYLAWFQQKPGKAPKSLIYLATSLQSGVPSKFSGSGSGTDFTLTISSLQPEDFATYYCQQYYSYPWTFGQGTKVEIK", "notes": "mouse IgG2 Fc (H2aM prefix)"}, "B6": {"name": "H2aM8832N (antibody, V domains shown)", "VH": "QVQLVESGGGVVQPGRSLRLSCAASGFTFSRYGMHWVRQAPGKGLEWVAVIWYDGTNKYYEDSLKGRFTISRDNSKNTLYLQMNSLRAEDSAVYYCARDQGKYIDYWGQGTLVTVSS", "VL": "AIQMTQSPSSLSASVGDRVTITCRTSQDIRNDLGWYQQKPGKVPNLLIYAASTLQSGVPSRFSGSGSGTDFTLTISSLQPEDFATYYCLQDYNYPFTFGPGTKVDIK", "notes": "mouse IgG2 Fc (H2aM prefix)"}, "B7": {"name": "H4H8837P (antibody, V domains shown)", "VH": "QVQLVESGGGVVQPGRSLRLSCAASGFTFNSYAMHWVRQAPGMGLEWVAVISSDGSNKYYADSVRGRFTVSRDNSKNTLYLQMNSLRSEDTAVYYCAKDGRGYSSFSHFGMDVWGQGTTVTVSS", "VL": "DIQMTQSPSTLSASVGDRVTITCRASQSIGSWLAWYQQKPGKAPKLLIYKTSSLESGVPSRFSGSGSGTEFTLTISSLQPDDFASYYCQQYNSYSFGQGTKVEIK", "notes": "human IgG4 Fc (H4H prefix)"}, "B8": {"name": "H1H8899P (antibody, V domains shown)", "VH": "EVQLVESGGGLVQPGGSLRLSCAASGFTFSSHWMSWVRQAPGKGLEWVANIKQDGSEKYYVDSVKGRFTISRDNAKNSLYLQISSLRAEDTAVYYCASNWNFLFDFWGQGTLVTVSS", "VL": "not shown"}, "B9": {"name": "H1M8115N (antibody, V domains shown)", "VH": "QVQLVQSGAEVKKPGSSVKVSCKASGGTFSTYEISWVRQAPGQGLEWMGGIIPVFGTTHYAQKFQDSVTITTDESTGTAFMELSSLKSEDTAVYYCARGGAGGDNWGQGTLVTVSS", "VL": "not shown", "notes": "H1M Fc prefix (mouse Fc)"}, "B10": {"name": "H2aM8109N (antibody, V domains shown)", "VH": "QVQVVESGGGVVQPGRSLRLSCAASGFTFSSYGLHWVRQAPGKGLEWVAVIWHDGSHKYYADSVKGRFTISRDNSKNTLYLQMNSLRAEDTAVYYCARDGIPVAEDYYFYGMDVWGQGTTVTVSS", "VL": "DIQMTQSPSSLSASVGDRVTITCRASQGIRNDLGWYQQKPGKAPKRLIYAASSLQSGVPSRFSGSGSGTEFTLTISSLQPEDFAIYYCLQHNSLTFGGGTKVEIK", "notes": "mouse IgG2 Fc (H2aM prefix)"}, "B11": {"name": "H4H8878P (antibody, V domains shown)", "VH": "QVQLVESGGGVVQPGRSLRLSCAASGFTLNTYGMHWIRQTPGKGLEWVSLISYDETKEYYVDSVKGRFTISRDNSKNTLYLQMNSVRVEDTAVYYCAKPLTGSTDYYYGLDVWGQGTTVTVSS", "VL": "DIQMTQSPSYVSASVGDRVIITCRASQDISSWLAWYQQKPGKAPKLLIYVTSSLESGVPSRFSGSGSGTDFTLTISGLQPEDFATYYCQQVKSFPPTFGPGTKVDIK", "notes": "human IgG4 Fc (H4H prefix)"}, "B12": {"name": "H4H8852P (antibody, V domains shown)", "VH": "QVQLQESGPGLVKPSETLSLTCTVSGGSISSYYWSWIRQPPGKGLEWIGYIYSSGIIKYNPSLKSRVTISADTSKNQFSLKLSSVTAADTAVYYCARHGIFGVMEYFQRWGQGTLVTVSS", "VL": "DIQMTQSPSSLSASIGDRVTITCQASQDIGNFLNWYQQKPGKAPTLLIYDASNMETGVPSRFSGSGSGTYFTFTISSLQPEDVATYYCQQYDNLPLTFGGGTKVEIK", "notes": "human IgG4 Fc (H4H prefix)"}, "B13": {"name": "H4H8856P (antibody, V domains shown)", "VH": "B12 VH with G49A, S53Y, I57T", "VL": "B12 VL with G30S, A51V, S67Y, Y70D, F73L, Q79K, V83I, L94I", "notes": "human IgG4 Fc (H4H prefix)"}, "B14": {"name": "H4H8871P (antibody, V domains shown)", "VH": "B12 VH with G27A", "VL": "B12 VL with Q37H, S63R, T74I", "notes": "human IgG4 Fc (H4H prefix)"}}, "note": "Changes are numbered by the printed parent chain. In names and notes the source's numbering stands."}
{"molecular_target": "T1, human KLB and human FGFR1c co-expressed on HEK293/hKLB/hFGFR1c/SRE-luc cells (human, UniProt Q86Z14 1-1044; P11362 22-822)", "T1 construct": "two receptors co-expressed on one cell line; also called KLB/FGFR1c coreceptor; FGF21R", "assay": "FACS on stable HEK293 cells", "experimental": "(§1) To determine binding specificity of the monoclonal anti-KLB/FGFR1c antibodies, the antibodies were tested in a fluorescence-activated cell sorting (FACS) binding assay to cell lines expressing human FGFR1c, human KLB, and both human FGFR1c and human KLB. HEK293 cell lines were generated that stably express full-length human FGFR1c (hFGFR1c; SEQ ID NO:433) or full-length human KLB (hKLB; SEQ ID NO:434) or both human FGFR1c and human KLB, along with a luciferase reporter [SRE (serum response element)-luciferase, SA Bioscience, #CLS-010L]. The resulting cell lines, referred to as HEK293/hFGFR1c/SRE-luc, HEK293/hKLB/SRE-luc, and HEK293/hKLB/hFGFR1c/SRE-luc, respectively, were maintained in DMEM supplemented with 10% FBS, NEAA, penicillin/streptomycin, 1 μg/mL puromycin and […] hygromycin B, 1 μg/mL puromycin and 500 μg/mL G418, or all three antibiotics.\n(§2) For the FACS analysis, HEK293 parental, HEK293/hFGFR1c/SRE-luc, HEK293/hKLB/SRE-luc, and HEK293/hKLB/hFGFR1c/SRE-luc cells were dissociated and plated onto 96-well v-bottom plates at 5 x 10⁵ cells/well in PBS containing 1% FBS. […] Cells were filtered and subsequently analyzed on a Hypercyte Flow Cytometer (Intellicyt Corp.). Unstained and secondary antibody alone controls were also tested for binding to all cell lines. The results were analyzed using FlowJo version 9.52 software and geometric mean (Geom. Mean) of fluorescence for viable cells was determined. Geom. mean of fluorescence for each antibody was then normalized to Geom. mean of unstained cells to obtain relative binding of antibody (binding ratios) per each cell type.", "units": {"binding ratio to unstained cells": "fold"}}
{"binder": "B1", "binding ratio to unstained cells": 23}
{"binder": "B2", "binding ratio to unstained cells": 35}
{"binder": "B3", "binding ratio to unstained cells": 4}
{"binder": "B4", "binding ratio to unstained cells": 4}
{"binder": "B5", "binding ratio to unstained cells": 41}
{"binder": "B6", "binding ratio to unstained cells": 7}
{"binder": "B7", "binding ratio to unstained cells": 33}
{"binder": "B8", "binding ratio to unstained cells": 4}
{"binder": "B9", "binding ratio to unstained cells": 33}
{"binder": "B10", "binding ratio to unstained cells": 58}
{"binder": "B11", "binding ratio to unstained cells": 35}
{"binder": "B12", "binding ratio to unstained cells": 33}
{"binder": "B13", "binding ratio to unstained cells": 30}
{"binder": "B14", "binding ratio to unstained cells": 33}
{"molecular_target": "T2, full-length human KLB on HEK293/hKLB/SRE-luc cells (human, UniProt Q86Z14 1-1044)", "T2 construct": "amino acids 1-1044 of NP_783864.1", "T2 sequence": "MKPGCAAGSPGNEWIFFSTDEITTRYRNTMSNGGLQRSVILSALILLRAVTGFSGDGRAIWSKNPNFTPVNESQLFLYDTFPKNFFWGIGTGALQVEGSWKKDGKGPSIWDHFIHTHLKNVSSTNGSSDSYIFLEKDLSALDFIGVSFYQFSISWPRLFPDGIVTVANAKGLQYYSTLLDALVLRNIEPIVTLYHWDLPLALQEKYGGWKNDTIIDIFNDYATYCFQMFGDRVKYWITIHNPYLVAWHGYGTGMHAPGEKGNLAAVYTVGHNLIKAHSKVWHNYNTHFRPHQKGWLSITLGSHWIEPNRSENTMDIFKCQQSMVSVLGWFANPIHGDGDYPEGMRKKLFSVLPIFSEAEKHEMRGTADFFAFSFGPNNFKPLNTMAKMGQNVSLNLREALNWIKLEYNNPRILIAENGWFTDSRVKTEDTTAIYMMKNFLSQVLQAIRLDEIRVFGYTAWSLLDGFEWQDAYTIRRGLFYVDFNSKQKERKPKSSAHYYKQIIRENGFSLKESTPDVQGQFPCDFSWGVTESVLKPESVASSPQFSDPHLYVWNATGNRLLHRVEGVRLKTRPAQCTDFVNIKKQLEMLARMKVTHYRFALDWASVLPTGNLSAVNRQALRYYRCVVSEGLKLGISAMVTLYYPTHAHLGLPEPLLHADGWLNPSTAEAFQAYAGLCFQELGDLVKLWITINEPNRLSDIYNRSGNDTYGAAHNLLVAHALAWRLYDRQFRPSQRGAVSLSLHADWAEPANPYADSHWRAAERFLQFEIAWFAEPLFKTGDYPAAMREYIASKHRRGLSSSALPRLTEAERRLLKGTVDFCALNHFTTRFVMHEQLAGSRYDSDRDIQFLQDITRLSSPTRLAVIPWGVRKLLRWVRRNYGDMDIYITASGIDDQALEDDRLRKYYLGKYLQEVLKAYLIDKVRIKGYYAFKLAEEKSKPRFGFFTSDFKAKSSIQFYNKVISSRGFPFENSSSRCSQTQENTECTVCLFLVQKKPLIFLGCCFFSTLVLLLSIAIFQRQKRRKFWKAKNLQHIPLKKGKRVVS", "assay": "FACS on stable HEK293 cells", "experimental": "as §1, §2", "units": {"binding ratio to unstained cells": "fold"}}
{"binder": "B1", "binding ratio to unstained cells": 11}
{"binder": "B2", "binding ratio to unstained cells": 15}
{"binder": "B3", "binding ratio to unstained cells": 5}
{"binder": "B4", "binding ratio to unstained cells": 4}
{"binder": "B5", "binding ratio to unstained cells": 15}
{"binder": "B6", "binding ratio to unstained cells": 2}
{"binder": "B7", "binding ratio to unstained cells": 13}
{"binder": "B8", "binding ratio to unstained cells": 3}
{"binder": "B9", "binding ratio to unstained cells": 13}
{"binder": "B10", "binding ratio to unstained cells": 21}
{"binder": "B11", "binding ratio to unstained cells": 11}
{"binder": "B12", "binding ratio to unstained cells": 7}
{"binder": "B13", "binding ratio to unstained cells": 5}
{"binder": "B14", "binding ratio to unstained cells": 7}
{"molecular_target": "T3, full-length human FGFR1c on HEK293/hFGFR1c/SRE-luc cells (human, UniProt P11362 22-822)", "T3 construct": "amino acids 1-733 of NP_075593", "T3 sequence (P11362 other isoform, or with tags, fused parts or gaps limits assumed)": "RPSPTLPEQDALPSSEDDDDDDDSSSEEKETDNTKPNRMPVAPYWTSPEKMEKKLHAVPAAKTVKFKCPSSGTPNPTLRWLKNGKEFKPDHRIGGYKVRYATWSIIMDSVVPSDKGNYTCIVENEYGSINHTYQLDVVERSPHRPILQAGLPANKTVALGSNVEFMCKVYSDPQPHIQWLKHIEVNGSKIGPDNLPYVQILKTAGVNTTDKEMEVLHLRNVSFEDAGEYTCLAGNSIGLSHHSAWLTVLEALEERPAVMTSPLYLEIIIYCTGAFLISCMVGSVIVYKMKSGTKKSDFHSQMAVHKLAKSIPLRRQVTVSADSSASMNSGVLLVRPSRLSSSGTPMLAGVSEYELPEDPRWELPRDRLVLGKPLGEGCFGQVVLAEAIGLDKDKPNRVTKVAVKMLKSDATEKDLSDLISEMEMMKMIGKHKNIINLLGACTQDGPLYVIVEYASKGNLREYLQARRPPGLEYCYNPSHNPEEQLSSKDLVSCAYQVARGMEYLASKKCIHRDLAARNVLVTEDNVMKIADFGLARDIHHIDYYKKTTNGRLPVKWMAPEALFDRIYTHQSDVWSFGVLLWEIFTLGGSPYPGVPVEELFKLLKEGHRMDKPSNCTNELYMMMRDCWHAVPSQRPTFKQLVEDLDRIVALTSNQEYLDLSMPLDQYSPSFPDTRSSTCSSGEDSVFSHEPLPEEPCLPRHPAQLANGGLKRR", "assay": "FACS on stable HEK293 cells", "experimental": "as §1, §2", "units": {"binding ratio to unstained cells": "fold"}}
{"binder": "B1", "binding ratio to unstained cells": 1}
{"binder": "B2", "binding ratio to unstained cells": 2}
{"binder": "B3", "binding ratio to unstained cells": 5}
{"binder": "B4", "binding ratio to unstained cells": 5}
{"binder": "B5", "binding ratio to unstained cells": 1}
{"binder": "B6", "binding ratio to unstained cells": 6}
{"binder": "B7", "binding ratio to unstained cells": 2}
{"binder": "B8", "binding ratio to unstained cells": 5}
{"binder": "B9", "binding ratio to unstained cells": 2}
{"binder": "B10", "binding ratio to unstained cells": 7}
{"binder": "B11", "binding ratio to unstained cells": 2}
{"binder": "B12", "binding ratio to unstained cells": 1}
{"binder": "B13", "binding ratio to unstained cells": 1}
{"binder": "B14", "binding ratio to unstained cells": 1}
{"molecular_target": "T1, human KLB and human FGFR1c co-expressed …", "assay": "cell-based or functional assay", "units": {"Maximum Inhibition (%)": "%"}}
{"binder": "B4", "Maximum Inhibition (%)": 10}
